Results on four substances are retold here after US20170233703A1.

The target of experiment [1] is dCas9M:IntN containing the residues from 714 to 1153 (Streptococcus pyogenes) (UniProt Q99ZW2).
Experiment [2] deals with IntC:dCas9C:Suntag containing the residues from 1154 to 1368 (Streptococcus pyogenes) (UniProt Q99ZW2).
For experiment [3], the target named is IntC:dCas9C:VPR split at residue 713 (dCas9 from residue 714) (Streptococcus pyogenes) (UniProt Q99ZW2).
Experiment [4] addresses IntC:dCas9C-VRER:VPR split at residue 713 (two-output sensory switch, FIG. 27) (Streptococcus pyogenes) (UniProt Q99ZW2).
For experiment [5], the target named is C-terminal dCas9 constituent split at residue 1153 fused to Suntag (Streptococcus pyogenes) (UniProt Q99ZW2).

“dCas9N containing dCas9 residues from 1 to 713, without intein fusion (from UniProt Q99ZW2)” yielded a TagBFP expression, three-input logic AND circuit of three split-dCas9 fragments, HEK293 cells in experiment [1] of 110 fold.

“dCas9M:IntN containing the residues from 714 to 1153 (from UniProt Q99ZW2)” yielded a TagBFP expression, three-input logic AND circuit of three split-dCas9 fragments, HEK293 cells in experiment [2] of 110 fold.

For the substance “dCas9N:IntN split at residue 713 (from UniProt Q99ZW2)”, the EYFP expression, two-input two-output sensory switch set by shRNA-FF5 and shRNA-FF4 in experiment [3] was 20 fold. Further, the mKate2 expression, two-input two-output sensory switch set by shRNA-FF5 and shRNA-FF4 in experiment [4] was determined as 20 fold.

For “N-terminal dCas9 constituent split at residue 1153 (intein fusion not stated at the place of the experiment) (from UniProt Q99ZW2)”, in experiment [5], the TagBFP expression, three-input logic AND circuit (two split-dCas9 constituents and rapalog), HEK293 cells turned out to be 140 fold.
